# Article PMC9786865, “Molecular Cloning and Characterization of a New Family VI Esterase from an Activated Sludge Metagenome” (Microorganisms, 2022)
# B1: Est6 (uncultured sludge bacterium) (protein)
# chain: MTELRINDDLVRWTVDRRPATADEALRALETRPLVLLMHGFGSFEGDLISLAAELPDGIVCASPRAPLTLPPPTVNGYAWWEIVFRADGTVVRSDPPAFEDSDAHTATLAILAWLDALDARVAGGLRTVVPLGFSQGGCMVTSLLRMQPTRFPCGVNCSGFVAPGSYAGDPELAAIRPPLFWGRDPADPIIEAERIDATAVWSAAHTAIEAHIYHGIGHGIGREEIADISAFIERHLAEAEH
# notes: pPAL7 N-terminal Profinity eXact tag cleaved on column; E. coli BL21 Star (DE3); monomer; primers encode MTELRI... start and ...AEAEH end
# Substrate: CC(=O)Oc1ccc([N+](=O)[O-])cc1
# Assay: purified protein
# Assay type: biochemical, uncultured sludge bacterium
# Conditions: 50 mM Tris-HCl pH 8.0, 40 °C, 5 min, 0.08-1.0 mM substrate
protein,measurement,value
B1,Km,1070 µM
same,kcat,10.46 s⁻¹
